Two proteins from US20100111943 can be followed below.

The data set has as its target FLAG (F)-tagged hsp90α (wild type), P07900.

B1: p300 protein (upstate) (protein)
chain: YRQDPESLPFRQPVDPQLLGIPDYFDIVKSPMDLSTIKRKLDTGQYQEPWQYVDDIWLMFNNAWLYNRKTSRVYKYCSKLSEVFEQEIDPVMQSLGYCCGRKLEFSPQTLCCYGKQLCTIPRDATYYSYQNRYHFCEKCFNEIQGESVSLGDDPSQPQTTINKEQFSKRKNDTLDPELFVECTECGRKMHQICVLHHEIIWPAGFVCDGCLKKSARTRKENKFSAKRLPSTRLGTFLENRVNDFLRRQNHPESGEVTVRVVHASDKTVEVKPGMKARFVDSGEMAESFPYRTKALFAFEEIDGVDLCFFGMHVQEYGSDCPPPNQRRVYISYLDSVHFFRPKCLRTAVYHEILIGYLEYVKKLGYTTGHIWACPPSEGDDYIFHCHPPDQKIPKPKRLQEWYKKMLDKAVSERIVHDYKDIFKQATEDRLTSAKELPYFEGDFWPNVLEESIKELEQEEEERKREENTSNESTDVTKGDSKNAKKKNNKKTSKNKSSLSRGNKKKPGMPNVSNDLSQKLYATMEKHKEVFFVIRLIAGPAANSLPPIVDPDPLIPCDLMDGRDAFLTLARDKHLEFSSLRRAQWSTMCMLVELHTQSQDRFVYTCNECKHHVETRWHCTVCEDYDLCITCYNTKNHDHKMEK
B1: the “in vitro acetylation of hsp90α, Western analysis with anti-AcK antibody” value is given as “Co-incubation with p300 was discovered to dose-dependently stimulate the acetylation of hsp90α”.

B2: PCAF (protein)
chain: MSEAGGAGPGGCGAGAGAGAGPGALPPQPAALPPAPPQGSPCAAAAGGSGACGPATAVAAAGTAEGPGGGGSARIAVKKAQLRSAPRAKKLEKLGVYSACKAEESCKCNGWKNPNPSPTPPRADLQQIIVSLTESCRSCSHALAAHVSHLENVSEEEMNRLLGIVLDVEYLFTCVHKEEDADTKQVYFYLFKLLRKSILQRGKPVVEGSLEKKPPFEKPSIEQGVNNFVQYKFSHLPAKERQTIVELAKMFLNRINYWHLEAPSQRRLRSPNDDISGYKENYTRWLCYCNVPQFCDSLPRYETTQVFGRTLLRSVFTVMRRQLLEQARQEKDKLPLEKRTLILTHFPKFLSMLEEEVYSQNSPIWDQDFLSASSRTSQLGIQTVINPPPVAGTISYNSTSSSLEQPNAGSSSPACKASSGLEANPGEKRKMTDSHVLEEAKKPRVMGDIPMELINEVMSTITDPAAMLGPETNFLSAHSARDEAARLEERRGVIEFHVVGNSLNQKPNKKILMWLVGLQNVFSHQLPRMPKEYITRLVFDPKHKTLALIKDGRVIGGICFRMFPSQGFTEIVFCAVTSNEQVKGYGTHLMNHLKEYHIKHDILNFLTYADEYAIGYFKKQGFSKEIKIPKTKYVGYIKDYEGATLMGCELNPRIPYTEFSVIIKKQKEIIKKLIERKQAQIRKVYPGLSCFKDGVRQIPIESIPGIRETGWKPSGKEKSKEPRDPDQLYSTLKSILQQVKSHQSAWPFMEPVKRTEAPGYYEVIRFPMDLKTMSERLKNRYYVSKKLFMADLQRVFTNCKEYNPPESEYYKCANILEKFFFSKIKEAGLIDK
As for B2, the “in vitro acetylation of hsp90α, Western analysis with anti-AcK antibody” value is “This was not seen with PCAF”.
